Experimental data: patent publication EP4790070A1 (Daegu Gyeongbuk Institute of Science and Technology, dated 2026)

T1: human CD24 on human cancer cell lines (MCF7, A549, Huh7) (human, UniProt P25063 27-59)
T1 construct: whole, on cells; Endogenous CD24 on cancer cell lines
T1 chain (looked up): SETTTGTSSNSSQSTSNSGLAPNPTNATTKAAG

B1: anti-CD24 antibody #1 (Fc fusion)
VH: MAQVQLLESGGGVVQPGRSLRLSCAASGFTFSSYGMHWVRQAPGKGLEWVSGMSGDGLATYYADSVKGRFTISRDNSKNTLYLQMNSLRAEDTAVYYCARDSSSWYGGYYYYYGMDVWGQGTTVTVSSGS
VL: DIQMTQSPSSVSASVGDRVTITCRASQGISSWLAWYQQKPGKAPKLLIYAASSLQSGVPPRFSGSGSGTDFTLTISSLQPEDFATYYCQQSYSTPLTFGGGTKVEIKR
notes: also called Candidate 1; αCD24 antibody (#1)
B2: anti-CD24 antibody #2 (Fc fusion)
VH: MAQVQLVQSGGGLIQPGGSLRLSCAASGFTVSSNYMSWVRQAPGKGLEWVSVIYSGGSTYYADSVKGRFTISRDNSKNTLYLQMNSLRAEDTAVYYCAREYGDYFDYWGQGTLVTVSSGS
VL: QSALTQPASVSGSPGQSITISCTGTSSDVGGYDHVSWYQQHPGKAPKLMIYEVTKRPSGVSDRFSGSKSGNTASLTISGLQADDEADYYCSSYAGSNSVLFGGGTQLTVLG
notes: also called Candidate 2

Target: T1, human CD24 on human cancer cell lines …
Assay: flow cytometry on fixed MCF-7 cells, FITC anti-human IgG

Binder | binding result
B1 | binds
B2 | binds
